The test system of this series is MS2 coat protein. As to the kind of experiment: apparent KD of MS2 coat protein; designed switch direction (-1 OFF switch, 1 ON switch): -1; higher = weaker reporter binding. Put shortly: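 Designed RNA switches were transcribed on Illumina chips by stalled E. coli RNA polymerase and titrated with SNAP-549-labelled MS2 coat protein from 0.7 or 1.5 nM, doubling to 3 µM. Step length ran from 0.8–1.5 h at the lowest concentration to 10–20 min at the highest. The apparent KD is the median over clusters for each design, from curve-fitted normalised cluster fluorescence.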

Setting [1] is: input ligand: microRNA oligo, concentration not stated.
Where [2] appears, read: Eterna round: R95, input ligand: FMN 200 uM.
Setting [3] is: Eterna round: R95, input ligand: microRNA oligo, concentration not stated.
The mark [4] stands for this setting: Eterna round: R95, input ligand: none.

As for “GGGAAGAACCAACAAGCAAACAUGAGGAUCACCCAUGUAGUAAGAGAAAUUGAGGUGAUUCAGAGAGCUCGACUUAU [AK-miRNA-r3-7.1] (Eterna round: R97, puzzle: Sensor, turn-off variant 1)”, the “apparent KD of MS2 coat protein” value came out at 367 nM (input ligand: FMN 200 uM) and 359 nM (input ligand: none).

For “AACUGUCUAGAGGAUAUGCUGGAUUAAUAUCUGGCAGAAGGUUGGACAUGAGGAUCACCCAUGUAAAUACUACC [Omei Ex6 A7] (Eterna round: R97, puzzle: Exclusion 6)”, the “apparent KD of MS2 coat protein” value turned out to be 33.1 nM (input ligand: FMN 200 uM) and 20.3 nM (input ligand: none).

Consider “UUUCAACGGUAGGAUAUCGAGACUACGACUAGCCGAGAAGGGCCGACAUGAGGAUCACCCAUGUGCCUCACCCG [Eternabot (L1) Solution 56] (Eterna round: R97, puzzle: Exclusion 6)”, for which the “apparent KD of MS2 coat protein” value reads like this: (input ligand: FMN 200 uM) 22.9 nM; (input ligand: none) 23.9 nM.

Consider “CAGAACAGAGGAUAUACAUGAGGAUCACCCAUGUGUUCCAGCUAGGAGACUAGCAUAUGUAGAAGGCUGUUCUG [Mat - Exclusion 3 - JL Mod - D12] (Eterna round: R97, puzzle: Exclusion 3)”, for which the “apparent KD of MS2 coat protein” value turned out to be 87.7 nM (input ligand: FMN 200 uM) and 161 nM (input ligand: none).

For “UUAAUUAAUGUGAGGAUAUCUAGAGCCUCGGCUCUAGAGAAGGCACAUGAGGAUCACCCAUGUCUCAAUUAAUU [BmEx4/2-E2] (Eterna round: R97, puzzle: Brourd's mod of Exclusion 4)”, the “apparent KD of MS2 coat protein” value was 33.9 nM (input ligand: FMN 200 uM) and 23.6 nM (input ligand: none).

Regarding “UUUAGUUCAGGAUAUGUAGAAAUUAACAUGAGGAUCACCCAUGUAGAUCCUGAAUUAACUACAGAAGGGAACAUUU [JL-ex5-4.43 Brourd mod] (Eterna round: R97, puzzle: Exclusion 5)”, the “apparent KD of MS2 coat protein” value by setting is: (input ligand: FMN 200 uM) 51.3 nM; (input ligand: none) 15.7 nM.

For “GCUUGUGCCCUAGGAUAUCGCCCAGCCAAUGGAUGAGAAGGAGGCGGGUGAAACAUGAGGAUCACCCAUGUAAACGCACAGGCG [Erdiusbi] (Eterna round: R96, puzzle: Exclusion NG 1)”, the “apparent KD of MS2 coat protein” value (input ligand: FMN 200 uM) was 189 nM, the “apparent KD of MS2 coat protein” value under setting [1] turned out to be 18 nM and the “apparent KD of MS2 coat protein” value (input ligand: none) turned out to be 21.9 nM.

For the sequence “UUAAAUCAUGUAGGAUAUGCGUGGCGAAGCUAUGCAGAAGGACAUGAGGAUCACCCAUGUUCUGCGGUCUGCGUACAGAUCGCA [JL ENG1 1.05] (Eterna round: R96, puzzle: Exclusion NG 1)”, the “apparent KD of MS2 coat protein” value was 502 nM (input ligand: FMN 200 uM), 29.1 nM under setting [1] and 42.7 nM (input ligand: none).

As for “AGAGAAUAGUCAGGAUAUCUUAAUAGAAAGAAUAGAGAAGGGACACAUGAGGAUCACCCAUGUGAAGUCUUGAGACUACAUGGU [Prohibition 30 - Jieux - Exclusion NG 1] (Eterna round: R96, puzzle: Exclusion NG 1)”, the “apparent KD of MS2 coat protein” value was determined as 108 nM (input ligand: FMN 200 uM), 27.4 nM under setting [1] and 35.3 nM (input ligand: none).

For “UUUUUCGAACAAGCUUCGAACAUGAGGAUCACCCAUGUAGGUAGAUUUGAGUAGGUUUGGAAGUAAGCUCGUCUUAU [JR_SV3TOV1_Sub081] (puzzle: Sensor v3, turn-off variant 1)”, the “apparent KD of MS2 coat protein” value reads like this: under setting [2], 416 nM; under setting [3], 561 nM; under setting [4], 592 nM.

On to “AAAAGGUCAGGAUAUCCAAGAAAAGAAAAGAAAAGAAAAGAGGAGAAGGGACAUGAGGAUCACCCAUGUAAAAG [Default title] (puzzle: Exclusion 4)”, for which the “apparent KD of MS2 coat protein” value came out at 39 nM under setting [2], 42.7 nM under setting [3] and 38 nM under setting [4].

On to “ACGCAACAUGAGGAUCACCCAUGUGAGGAUAUGUAAAUAGUAAACAAAUAGGAAAUGAACAGAAGGCACACCGG [JR_Exclusion1_Sub005] (puzzle: Exclusion 1)”, for which the “apparent KD of MS2 coat protein” value under setting [3] was found to be 32.5 nM.

For “CAAUUAAUUAAUUAAUAAUACAUGAGGAUCACCCAUGUAGAUCCUACAUACAAGCUUUGUAGCUCGUCUUAUAAUUA [Stov1/3-A3] (Eterna round: R97, puzzle: Sensor, turn-off variant 1)”, the “apparent KD of MS2 coat protein” value by setting is: (input ligand: FMN 200 uM) 368 nM; (input ligand: none) 417 nM.

Regarding “GUCAUGAUAGGAUAUUACGGACGGAACAUGAGGAUCACCCAUGUGUCCCAAUCCAACUGAUAAGAAGGAUCAUGGC [Eternabot (Original) Solution 34] (Eterna round: R97, puzzle: Exclusion 5)”, the “apparent KD of MS2 coat protein” value is, setting by setting: (input ligand: FMN 200 uM) 18.8 nM; (input ligand: none) 14.5 nM.

For “AGUUCACAUGAGGAUCACCCAUGUGAGGAUAUGGAUUCGCUGGCCGUAGCCAGUGGAUCCAGAAGGCGCGUGAU [JL-ex1-4.15] (Eterna round: R97, puzzle: Exclusion 1)”, the “apparent KD of MS2 coat protein” value was determined as 55.7 nM (input ligand: FMN 200 uM) and 65.1 nM (input ligand: none).

In the case of “UAUAAGAUAGGAUAUACAGGCCCGUCUUCAUAUCGAUCCCGACAUGAGGAUCACCCAUGUAGAAGGAUCGUGAG [Mod 21 - Jieux - Exclusion 2] (Eterna round: R97, puzzle: Exclusion 2)”, the “apparent KD of MS2 coat protein” value is, setting by setting: (input ligand: FMN 200 uM) 13.8 nM; (input ligand: none) 13.7 nM.

Take “UAGAUGGGAGGAUAUACGUAGAUGCAGGUUCGUGUGGUGCUACAUGAGGAUCACCCAUGUAGAAGGCCCGUCUU [Resubmit R3 JL-ex2-2.29] (Eterna round: R97, puzzle: Exclusion 2)”: the “apparent KD of MS2 coat protein” value worked out at 77.4 nM (input ligand: FMN 200 uM) and 18.4 nM (input ligand: none).

With “AACUUCUGAGGAUAUACAUAGAUUUACAUGAGGAUCACCCAUGUUCCUCUAUGUAUAAAUGUAGAAGGCAGAAGAG [Mat - Exclusion 5 - JL Mod - D63] (Eterna round: R97, puzzle: Exclusion 5)”, the “apparent KD of MS2 coat protein” value is, setting by setting: (input ligand: FMN 200 uM) 71.3 nM; (input ligand: none) 17.2 nM.

As to “ACAUGACUGCUAGGAUAUAGAUGACAUGAGGAUCACCCAUGUUGUCCCAUGUUUAUGGAAACGGACUAGAAGGAGUAGUAUAUG [Ex NG2 #14] (Eterna round: R96, puzzle: Exclusion NG 2)”, the “apparent KD of MS2 coat protein” value reads like this: (input ligand: FMN 200 uM) 30.7 nM; under setting [1], 23.4 nM; (input ligand: none) 27.9 nM.

For “CGUGACUGAGGAUAUCUAUAAUGUCACAUGAGGAUCACCCAUGUCCAGCGAAAGCUGGAGGGAGAAGGCAGUCACG [Fiskers Ex 5 - 33] (puzzle: Exclusion 5)”, the “apparent KD of MS2 coat protein” value reads like this: under setting [2], 29.4 nM; under setting [3], 55.5 nM; under setting [4], 74.6 nM.

On to “CACCGUUACCUAGGAUAUAGUACAUGAGGAUCACCCAUGUAAUAAAUGAGAAUUUCGGAUGUAUGCUAGAAGGAGGAAAUCGGC [Ostricism 49 - Jieux - Exclusion NG 2] (Eterna round: R96, puzzle: Exclusion NG 2)”, for which, under setting [1], the “apparent KD of MS2 coat protein” value was 29.7 nM.

As for “GGCACACAUGUAGGAUAUCUGCACGUGUAGUGCAGAGAAGGACAUGAGGAUCACCCAUGUAAUUAAGAUCAAUUAUUAAGUGCC [ENG1/3-A3] (Eterna round: R96, puzzle: Exclusion NG 1)”, the “apparent KD of MS2 coat protein” value (input ligand: FMN 200 uM) came out at 481 nM, the “apparent KD of MS2 coat protein” value under setting [1] came to 48.6 nM and the “apparent KD of MS2 coat protein” value (input ligand: none) came to 58.9 nM.

“AGAGCACAUGAGGAUCACCCAUGUCAGGAUAUCGACUGAACAGCUUCGGCUGUUCAGUCGAGAAGGGACAAUUA [Brourdxlusion 7 - Jieux - Exclusion 1] (Eterna round: R97, puzzle: Exclusion 1)”: the “apparent KD of MS2 coat protein” value is, setting by setting: (input ligand: FMN 200 uM) 19.4 nM; (input ligand: none) 35 nM.

With “UAGGUACAUGAGGAUCACCCAUGUGAGGAUAUAGUUGAAGAUUGCGAGAGGGAGAGGACUAGAAGGCACAGUGG [JR_Exclu1_Sub037] (puzzle: Exclusion 1)”, the “apparent KD of MS2 coat protein” value under setting [3] came out at 40.9 nM.

Consider “UUUUUAUAUGAAGGAUAUACUUAACAUGAGGAUCACCCAUGUGGUGUUGUGAGUGAGUGAGUUUAGUAGAAGGUCAAUUCGUUU [JMF's solution 80] (Eterna round: R96, puzzle: Exclusion NG 2)”, for which the “apparent KD of MS2 coat protein” value (input ligand: FMN 200 uM) was 823 nM, the “apparent KD of MS2 coat protein” value under setting [1] was determined as 294 nM and the “apparent KD of MS2 coat protein” value (input ligand: none) came to 356 nM.

On to “UUUUAACAUGAGGAUCACCCAUGUGAGGAUAUCGAAAUUUAUAUUUAUAUUAAUUUAACGAGAAGGCACAUUUU [JMF 87] (puzzle: Exclusion 1)”, for which the “apparent KD of MS2 coat protein” value under setting [3] is 84.4 nM.

As to “CCGGAAAGGAAGGAUAUGCUAGACGAUAGUCUAGCAGAAGGUCCUACAUGAGGAUCACCCAUGUGUCCUCCCGG [Mat - Exclusion 6 - Eli Mod - D43] (Eterna round: R97, puzzle: Exclusion 6)”, the “apparent KD of MS2 coat protein” value (input ligand: FMN 200 uM) turned out to be 1260 nM and the “apparent KD of MS2 coat protein” value (input ligand: none) came out at 182 nM.

Consider “CGAGCUAGUGUGAGGAUAUACCUAUGGAUACAUAGGUAGAAGGCACAUGAGGAUCACCCAUGUCCUAUAGCUCG [jl-bmx4-4.56] (Eterna round: R97, puzzle: Brourd's mod of Exclusion 4)”, for which the “apparent KD of MS2 coat protein” value reads like this: (input ligand: FMN 200 uM) 499 nM; (input ligand: none) 177 nM.

“CACCAGCGAGGAUAUACACGUGGUCUCCACUCCCGGUGGUAACAUGAGGAUCACCCAUGUAGAAGGCGCAACAU [Gecedi] (puzzle: Exclusion 2)”: the “apparent KD of MS2 coat protein” value under setting [3] amounted to 44.8 nM.

Regarding “AAUUCUAGGGUCAGACGCACAAGCUUUUUGCUCGUUUUAACAUGAGGAUCACCCAUGUCUAGUGGAUCUGAUCGGGC [JL ViennaUCT Isreen mod 8] (puzzle: Sensor v3, turn-off variant 2)”, the “apparent KD of MS2 coat protein” value under setting [2] came out at 24.8 nM, the “apparent KD of MS2 coat protein” value under setting [3] is 72.9 nM and the “apparent KD of MS2 coat protein” value under setting [4] amounted to 22.4 nM.

Consider “CUAUAGUAUGUAGGAUAUCGGUCAGUUUCUGAUCGAGAAGGACAUGAGGAUCACCCAUGUAAGGCUACCGGUUUCUGGUGGCCG [JL ENG1 3.54] (Eterna round: R96, puzzle: Exclusion NG 1)”, for which the “apparent KD of MS2 coat protein” value was 61.6 nM (input ligand: FMN 200 uM), 18.5 nM under setting [1] and 23.6 nM (input ligand: none).

Source of the values: the supplement of paper PMC9170038.
